The text below walks through data of the RNAGym collection of RNA variant scans (doi:10.1073/pnas.2313332121).

Variants at the floor of the assay were thinned out.

The labels stand for the following.
B1: TPR 5TU (parent)
chain: GGAUCUUCUCGAUCUAACAAAAAAGACAAAUCUGCCACAAAGCUUGAGAGCAUCUUCGGAUGCAGAGGCGGCAGCCUUCGGUGGCGCGAUAGCGCCAACGUUCUCAACUAUGACACGCAAAACGCGUGCUCCGUUGAAUGGAGUUUAUCAUG

In the data set the parent is B1. Description: polymerase ribozyme fitness, log enrichment relative to wild type (log ratio); higher = more active; in vitro selection for triplet polymerase activity. Summed up: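 For each subunit of a heterodimeric triplet polymerase ribozyme, a mutant library was built by PCR and transcribed, then taken through a single in vitro selection round in triplicate. Selection involved annealing to a biotinylated primer, the partner subunit and triplets, incubation frozen at −7 °C, gel excision of extended constructs, capture on streptavidin beads and RT-PCR. Genotypes were retained after Illumina sequencing of inputs and outputs only with ≥10 input reads and ≥1 read in each output. Fitness is defined as the logarithm of a genotype's enrichment relative to wild-type enrichment, using inverse-variance-weighted averages across replicates, with the logarithm taken to base 2.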
On to GGAUGUUCUCGAUCUAACAAAAAAGACAAAUCUGCCACAAAGCUUGAGAGAAUCUUCGGAUGCAGAGGCGGCAGCCUUCGGUGGCGCGAUAGCGCCAACGUUCUCAACUAUGACACGCAAAACGCGUGCUCCGUUGAAUGGAGUUUAUCAUG [C5G C51A], for which the “polymerase ribozyme fitness (log ratio)” value is -1.01.

As to GGAUCUUCUCGAUCUAACAAAAAAGACAAAUCUGCCACAAAGCAUGAGAUCAUCUUCGGAUGCAGAGGCGGCAGGCUUUGGUGGCGAGAUAGCGCCAACGUUCUCAACUAUGACACGCAAAACGUGUGCUCCGUUGAAUGGAGUUUAUCAUG [U44A G50U C75G C79U C87A C125U], the “polymerase ribozyme fitness (log ratio)” value was at most -4.2. As for GGAUCUUCUCGAUCUAACAAAAAAGACAAAUCUGCCACAAAGCUUGAGAGCUUCUUCGGAUGCAGAGGCGGCAGCCUUCGGUGGCGCGAUAGCGCCAACGUUCUCAACUAUGACACGCAAAACGCGUGCUCCGUUGAAUGGAGUUUACCAUG [A52U U148C], the “polymerase ribozyme fitness (log ratio)” value was at most -4.2. Take GGAUCUUCUCGAUCUAACAAAAAAGACAAAUCUGCCACAAAGCUUGAGAGCAUCUGCGGAUGCAGAGGCGGCAGCCUUCGGUGGCGCGAUAGCGCCAACGUUCUCAACUAUGACACGUAAAAUGCGUGCUCCGUUGAAUGGAGUUUAUCAUG [U56G C118U C123U]: the “polymerase ribozyme fitness (log ratio)” value was -0.604. Turning to GGAUCUUCUCGAUCUAACAAAAAUGACAAAUCUGCCACAAAGCUUGCCAGCAUCUUCGGAUGCAGAGGCGGCAGCCUUCGGUGGGGCGAUGGCGCCAACGUUCUCAACUAUGACACGCAAAACGCGUGCUCCGUUGAAUGGAGUUUAUCAUG [A24U A47C G48C C85G A91G], the “polymerase ribozyme fitness (log ratio)” value was at most -4.2.

In the case of GGAUCUUCUCGAUCUAACAAAAAAGACAAAUCUGCCACAAAGCUUGAGAGCAUUUUCGGAUGCAGAGGCGGCAGCCUUCGGUGGUGCGAUAGCGCCAACGUUCUCAACUAUGACAAGCAAAACGCGUGCUCCGUUGAAUGGAGUUUAUCAUG [C54U C85U C116A], the “polymerase ribozyme fitness (log ratio)” value stood at 0.743. Take GGAUCUUCUCGAUCAAACAAAAAAGACAAAUCUGCCAAAAAGCUUGAGAGCAUCUUCGGAUGCAGAGGCGGCUGCCUUCGGUUCCGCGAUAGCGCCAACGUUCUCAACUAUGACACGCAAAACGCGUGCUCCGUUGAAUGGAGUUUAUCAUG [U15A C38A A73U G83U G84C]: the “polymerase ribozyme fitness (log ratio)” value is at most -4.2.

For GGAUCUUCUCGAUUUAACAAAAAAGACAAAUCUGCCACAAAGCUUGAGAGCAUCUUCGGAUGCAGAGGCGGCAGCCUUCGGUGUCGCGAUAGCGCCAACGUUCUCAACUAUGACACGCAAAACGCGUGCUCCGUUGAAUGGAGUUUAUCAUG [C14U G84U], the “polymerase ribozyme fitness (log ratio)” value was -3.29. With GGAUCGUCUCGAUCUAACGAAAAAGACAAAUCUGCCACAAAGCAUGAGAGCAUCUUCGGAUGCAGAGGCGGCAGCCUUCGGCGGCGCGAUAGCGUCAACGUUCUCAACUAUGACACGCAAAACGCGUGCUCCGUUGAAGGGAGUUUAUCAUG [U6G A19G U44A U82C C95U U139G], the “polymerase ribozyme fitness (log ratio)” value was at most -4.2. As for GGAUCUUCUCGAUCUAACAAAAAAGACAAAUCUGCCACAAGGCUUGAGAGCAUCUUAGGAUGCAGAGGCGGCAGCCUUCGGUGGCGCGAUAGCGCCAACGUUCUCAACUAUGACACGCAAAACGCGUGCUCCGUUGAAUGGAGUUUAUCAUG [A41G C57A], the “polymerase ribozyme fitness (log ratio)” value worked out at 0.0695. In the case of GGAUCUUCUCGAUCUAACAAAAAAGACAAAUCUGCCACAAAGCUUGAGAGUAUCUUCGGAUGCAGAGGCGGCAGUCUUCGGUGGCGUGAUAGCGCCAACGUUCCCAACUAUGACGCGCAAUACGCGUGCUCCGUUGAAUGGCGUUUAUCAUG [C51U C75U C87U U104C A115G A121U A142C] it was -4.13. Turning to GGAUGUUCUCGGUCUAACAAAAAAGACAAAUCUGCCACAAAGCUUGAGAGCAUCUUCGGAUGUAGAGGCGGCAGCCUUCGGUGCCGCGAUAGCGCUAACGUUCUCAACUAUGACACGCAAAACGCGUGCUCCGUUGAAUGGAGUUUAUCAUG [C5G A12G C63U G84C C96U], the “polymerase ribozyme fitness (log ratio)” value was at most -4.2. On to GGAUCUUCUCGAUCUAACAAAAAAGACAAGUCUGCCACAAAGCUUGAGAGCAUCUUCGGAUGCAGAGGCGGCAGGCUUCGGCGGCGCGAUAGCGCCAAAGUUCUCAACUAUGACACGCAAAACGCGUGCUCCGUUGAAUGGAGUUUAUCAUG [A30G C75G U82C C99A], for which the “polymerase ribozyme fitness (log ratio)” value was at most -4.2.

With GGAUCUUCUCGAUCUAACAAAAAAGACAAAUCUGCCACAAAGCUUGAGAGUAUCUUCGGAUGCAGAGGCGGCAGCCUUCGGUGGCGAGAUAGCGCCAACGUUCUCAACUAUGACACGCAAAACGCGUGCUCCGUUGAAUGUAGUUUAUCAUG [C51U C87A G141U], the “polymerase ribozyme fitness (log ratio)” value is at most -4.2.

Turning to GGAUCUUUUCGAUCUAACAAAAAAGACAAAUCUGCCACAAAGCUUGAGAGCAUCUUCGGAUGCAGAGGCGGCAGCCUUCGGUGGCGCGAUAGCGCCAACGUUCUCAACUAUGACAAGCAAAACGCGUGCUCCGUUGAAUGGAGUUUAUCAUG [C8U C116A], the “polymerase ribozyme fitness (log ratio)” value was -2.08. Consider GGAUCUUCUCGAUCUAACAAAAAAGACAAAUCUGCCACAAAGCUUGAGAACAUCUUCGGAUGCAGAGGCGGCAGCCUUCGGUGGCGCGAUAGCGCCAACGUUCUCAACUAUGACACGCAAAACGCGUGCUCCGCUGAAUGGAGUUUAUCAUG [G50A U134C], for which the “polymerase ribozyme fitness (log ratio)” value was -1.29. As for GGAUCUUCUCGAUCUAACAAAAAAGACAAAUCUGCCACAAAGCUUGGGAGCAUCUUCGGAUGCAGAGGCGGCAGCCUUCGGUGGCGCGAUAGCUCCAACGUUCUCAACUAUGACACGCAAAACGCGUGCUCCGUUGAAUGGAGUUUGUCAUG [A47G G94U A147G], the “polymerase ribozyme fitness (log ratio)” value is at most -4.2. With GGAUCUUCUCGAUCUAACAAAAAAGACAAAUCUGCCACAAAGCUUGAGAGCAACUUCGGAUGCAGAGGCCGCAGCCUUCGGUGGCGCGAUAGCGCCAACGUUCUCAACUAUGACACGCAAAACGCGUGCUCCGUUGAAUGGAGUUUAUCAUG [U53A G70C], the “polymerase ribozyme fitness (log ratio)” value is at most -4.2. Regarding GGAUCUUCUCGAUCUAACAUAAAAGACAGAUCUGCCACAAAACUUGAGAGCAUCUUAGGAUGCAGAGGCGGCAGCCUUCGGUGGCGCGAUGGCCCCAACGUUCUCAACUAUGACACGCAAAACGCGUGCUCCGUUGAAUGGAGUUUAUCAUG [A20U A29G G42A C57A A91G G94C], the “polymerase ribozyme fitness (log ratio)” value was at most -4.2.
